According to patent publication US20210261648A1 (published 2021):

T1: FcγRIIb extracellular domain with C-terminal His tag (human, UniProt P31994 43-217)
T1 construct: extracellular domain; also called FcgRIIb
T1 sequence (looked up): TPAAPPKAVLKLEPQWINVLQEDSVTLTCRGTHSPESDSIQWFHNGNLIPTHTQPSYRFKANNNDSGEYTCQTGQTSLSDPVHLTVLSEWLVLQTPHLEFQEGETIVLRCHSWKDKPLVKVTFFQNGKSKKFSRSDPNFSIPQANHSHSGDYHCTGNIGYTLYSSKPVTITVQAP


Columns and labels:
[1] = target: T2, FcγRIa extracellular domain with C-terminal His tag (human, UniProt P12314 16-292); assay: SPR, captured antibody, FcgR analyte
T2 construct: also called FcgRIa
Procedure: (§1) Relative binding activities were calculated for the results of analyzing interactions with the respective FcγRs according to the following method.

[2] = target: T1, FcγRIIb extracellular domain with …; assay: SPR, captured antibody, FcgR analyte
Procedure: as §1

T2 sequence (P12314 16-292): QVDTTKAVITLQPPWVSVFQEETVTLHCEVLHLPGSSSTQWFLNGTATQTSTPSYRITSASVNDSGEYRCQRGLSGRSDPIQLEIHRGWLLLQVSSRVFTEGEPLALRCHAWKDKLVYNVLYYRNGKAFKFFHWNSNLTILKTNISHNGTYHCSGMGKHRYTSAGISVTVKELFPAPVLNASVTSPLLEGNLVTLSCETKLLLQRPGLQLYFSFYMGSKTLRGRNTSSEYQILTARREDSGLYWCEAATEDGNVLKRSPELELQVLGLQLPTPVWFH

| relative binding activity [1] | relative binding activity [2] | Binder |
| --- | --- | --- |
| 91 relative (IL6R-BF648/IL6R-L = 100) | 150 relative (IL6R-BF648/IL6R-L = 100) | IL6R-BP132/IL6R-L (antibody, human IgG1, kappa) heavy: QVQLQESGPGLVKPSETLSLTCAVSGHSISHDHAWSWVRQPPGEGLEWIGFISYSGITNYNPSLQGRVTISRDNSKNTLYLQMNSLRAEDTAVYYCARSLARTTAMDYWGEGTLVTVSSASTKGPSVFPLAPSSKSTSGGTAALGCLVKDYFPEPVTVSWNSGALTSGVHTFPAVLQSSGLYSLSSVVTVPSSSLGTQTYICNVNHKPSNTKVDKKVEPKSCDKTHTCPPCPAPDLLGGDSVFLFPPKPKDTLMISRTPEVTCVVVDVSHEDPEVKFNWYVDGVEVHNAKTKPREEQYNSTYRVVSVLTVLHQDWLNGKEYKCKVSNAALPKPIEKTISKAKGQPREPQVYTLPPSRDELTKNQVSLTCLVKGFYPSDIAVEWESNGQPENNYKTTPPVLDSDGSFFLYSKLTVDKSRWQQGNVFSCSVMHEALHNHYTQESLSLSP light: not shown |
| 41 relative (IL6R-BF648/IL6R-L = 100) | 137 relative (IL6R-BF648/IL6R-L = 100) | IL6R-BP133/IL6R-L (antibody, human IgG1, kappa) heavy: QVQLQESGPGLVKPSETLSLTCAVSGHSISHDHAWSWVRQPPGEGLEWIGFISYSGITNYNPSLQGRVTISRDNSKNTLYLQMNSLRAEDTAVYYCARSLARTTAMDYWGEGTLVTVSSASTKGPSVFPLAPSSKSTSGGTAALGCLVKDYFPEPVTVSWNSGALTSGVHTFPAVLQSSGLYSLSSVVTVPSSSLGTQTYICNVNHKPSNTKVDKKVEPKSCDKTHTCPPCPAPDYLGGDSVFLFPPKPKDTLMISRTPEVTCVVVDVSHEDPEVKFNWYVDGVEVHNAKTKPREEQYNSTYRVVSVLTVLHQDWLNGKEYKCKVSNKALPKPIEKTISKAKGQPREPQVYTLPPSRDELTKNQVSLTCLVKGFYPSDIAVEWESNGQPENNYKTTPPVLDSDGSFFLYSKLTVDKSRWQQGNVFSCSVMHEALHNHYTQESLSLSP light: not shown |
| 74 relative (IL6R-BF648/IL6R-L = 100) | 179 relative (IL6R-BF648/IL6R-L = 100) | IL6R-BP188/IL6R-L (antibody, human IgG1, kappa) heavy: QVQLQESGPGLVKPSETLSLTCAVSGHSISHDHAWSWVRQPPGEGLEWIGFISYSGITNYNPSLQGRVTISRDNSKNTLYLQMNSLRAEDTAVYYCARSLARTTAMDYWGEGTLVTVSSASTKGPSVFPLAPSSKSTSGGTAALGCLVKDYFPEPVTVSWNSGALTSGVHTFPAVLQSSGLYSLSSVVTVPSSSLGTQTYICNVNHKPSNTKVDKKVEPKSCDKTHTCPPCPAPDLLGDDSVFLFPPKPKDTLMISRTPEVTCVVVDVSDEDGEVKFNWYVDGVEVHNAKTKPREEQYNSTYRVVSVLTVLHQDWLNGKEYKCKVSNKALPKPIEKTISKAKGQPREPQVYTLPPSRDELTKNQVSLTCLVKGFYPSDIAVEWESNGQPENNYKTTPPVLDSDGSFFLYSKLTVDKSRWQQGNVFSCSVMHEALHNHYTQESLSLSP light: not shown |
| 86 relative (IL6R-BF648/IL6R-L = 100) | 133 relative (IL6R-BF648/IL6R-L = 100) | IL6R-BP143/IL6R-L (antibody, human IgG1, kappa) heavy: QVQLQESGPGLVKPSETLSLTCAVSGHSISHDHAWSWVRQPPGEGLEWIGFISYSGITNYNPSLQGRVTISRDNSKNTLYLQMNSLRAEDTAVYYCARSLARTTAMDYWGEGTLVTVSSASTKGPSVFPLAPSSKSTSGGTAALGCLVKDYFPEPVTVSWNSGALTSGVHTFPAVLQSSGLYSLSSVVTVPSSSLGTQTYICNVNHKPSNTKVDKKVEPKSCDKTHTCPPCPAPEYLGGDSVFLFPPKPKDTLMISRTPEVTCVVVDVSHEDPEVKFNWYVDGVEVHNAKTKPREEQYNSTYRVVSVLTVLHQDWLNGKEYKCKVSNAALPAPIEKTISKAKGQPREPQVYTLPPSRDELTKNQVSLTCLVKGFYPSDIAVEWESNGQPENNYKTTPPVLDSDGSFFLYSKLTVDKSRWQQGNVFSCSVMHEALHNHYTQESLSLSP light: not shown |
| 96 relative (IL6R-BF648/IL6R-L = 100) | 171 relative (IL6R-BF648/IL6R-L = 100) | IL6R-BP184/IL6R-L (antibody, human IgG1, kappa) heavy: QVQLQESGPGLVKPSETLSLTCAVSGHSISHDHAWSWVRQPPGEGLEWIGFISYSGITNYNPSLQGRVTISRDNSKNTLYLQMNSLRAEDTAVYYCARSLARTTAMDYWGEGTLVTVSSASTKGPSVFPLAPSSKSTSGGTAALGCLVKDYFPEPVTVSWNSGALTSGVHTFPAVLQSSGLYSLSSVVTVPSSSLGTQTYICNVNHKPSNTKVDKKVEPKSCDKTHTCPPCPAPDLLGGDSVFLFPPKPKDTLMISRTPEVTCVVVDVSHEDGEVKFNWYVDGVEVHNAKTKPREEQYNSTYRVVSVLTVLHQDWLNGKEYKCKVSNKALPKPIEKTISKAKGQPREPQVYTLPPSRDELTKNQVSLTCLVKGFYPSDIAVEWESNGQPENNYKTTPPVLDSDGSFFLYSKLTVDKSRWQQGNVFSCSVMHEALHNHYTQESLSLSP light: not shown |
| 95 relative (IL6R-BF648/IL6R-L = 100) | 173 relative (IL6R-BF648/IL6R-L = 100) | IL6R-BP182/IL6R-L (antibody, human IgG1, kappa) heavy: QVQLQESGPGLVKPSETLSLTCAVSGHSISHDHAWSWVRQPPGEGLEWIGFISYSGITNYNPSLQGRVTISRDNSKNTLYLQMNSLRAEDTAVYYCARSLARTTAMDYWGEGTLVTVSSASTKGPSVFPLAPSSKSTSGGTAALGCLVKDYFPEPVTVSWNSGALTSGVHTFPAVLQSSGLYSLSSVVTVPSSSLGTQTYICNVNHKPSNTKVDKKVEPKSCDKTHTCPPCPAPDLLGGDSVFLFPPKPKDTLMISRTPEVTCVVVDVSHEDGEVKFNWYVDGVEVHNAKTKPREEQDNSTYRVVSVLTVLHQDWLNGKEYKCKVSNKALPKPIEKTISKAKGQPREPQVYTLPPSRDELTKNQVSLTCLVKGFYPSDIAVEWESNGQPENNYKTTPPVLDSDGSFFLYSKLTVDKSRWQQGNVFSCSVMHEALHNHYTQESLSLSP light: not shown |
| 102 relative (IL6R-BF648/IL6R-L = 100) | 147 relative (IL6R-BF648/IL6R-L = 100) | IL6R-BP176/IL6R-L (antibody, human IgG1, kappa) heavy: QVQLQESGPGLVKPSETLSLTCAVSGHSISHDHAWSWVRQPPGEGLEWIGFISYSGITNYNPSLQGRVTISRDNSKNTLYLQMNSLRAEDTAVYYCARSLARTTAMDYWGEGTLVTVSSASTKGPSVFPLAPSSKSTSGGTAALGCLVKDYFPEPVTVSWNSGALTSGVHTFPAVLQSSGLYSLSSVVTVPSSSLGTQTYICNVNHKPSNTKVDKKVEPKSCDKTHTCPPCPAPDLLGGDSVFLFPPKPKDTLMISRTPEVTCVVVDVSHEDPEVKFNWYVDGVEVHNAKTKPREEQYNSTYRVVSVLTVLHQDWLNGKEYKCKVSNDALPKPIEKTISKAKGQPREPQVYTLPPSRDELTKNQVSLTCLVKGFYPSDIAVEWESNGQPENNYKTTPPVLDSDGSFFLYSKLTVDKSRWQQGNVFSCSVMHEALHNHYTQESLSLSP light: not shown |
| 64 relative (IL6R-BF648/IL6R-L = 100) | 121 relative (IL6R-BF648/IL6R-L = 100) | IL6R-BP144/IL6R-L (antibody, human IgG1, kappa) heavy: QVQLQESGPGLVKPSETLSLTCAVSGHSISHDHAWSWVRQPPGEGLEWIGFISYSGITNYNPSLQGRVTISRDNSKNTLYLQMNSLRAEDTAVYYCARSLARTTAMDYWGEGTLVTVSSASTKGPSVFPLAPSSKSTSGGTAALGCLVKDYFPEPVTVSWNSGALTSGVHTFPAVLQSSGLYSLSSVVTVPSSSLGTQTYICNVNHKPSNTKVDKKVEPKSCDKTHTCPPCPAPELLGDDSVFLFPPKPKDTLMISRTPEVTCVVVDVSHEDPEVKFNWYVDGVEVHNAKTKPREEQYNSTYRVVSVLTVLHQDWLNGKEYKCKVSNAALPAPIEKTISKAKGQPREPQVYTLPPSRDELTKNQVSLTCLVKGFYPSDIAVEWESNGQPENNYKTTPPVLDSDGSFFLYSKLTVDKSRWQQGNVFSCSVMHEALHNHYTQESLSLSP light: not shown |
| 113 relative (IL6R-BF648/IL6R-L = 100) | 173 relative (IL6R-BF648/IL6R-L = 100) | IL6R-BP193/IL6R-L (antibody, human IgG1, kappa) heavy: QVQLQESGPGLVKPSETLSLTCAVSGHSISHDHAWSWVRQPPGEGLEWIGFISYSGITNYNPSLQGRVTISRDNSKNTLYLQMNSLRAEDTAVYYCARSLARTTAMDYWGEGTLVTVSSASTKGPSVFPLAPSSKSTSGGTAALGCLVKDYFPEPVTVSWNSGALTSGVHTFPAVLQSSGLYSLSSVVTVPSSSLGTQTYICNVNHKPSNTKVDKKVEPKSCDKTHTCPPCPAPDLLGGDSVFLFPPKPKDTLMISRTPEVTCVVVDVSDEDGEVKFNWYVDGVEVHNAKTKPREEQYNSTYRVVSVLTVLHQDWLNGKEYKCKVSNKALPKPIEKTISKAKGQPREPQVYTLPPSRDELTKNQVSLTCLVKGFYPSDIAVEWESNGQPENNYKTTPPVLDSDGSFFLYSKLTVDKSRWQQGNVFSCSVMHEALHNHYTQESLSLSP light: not shown |
| 109 relative (IL6R-BF648/IL6R-L = 100) | 172 relative (IL6R-BF648/IL6R-L = 100) | IL6R-BP192/IL6R-L (antibody, human IgG1, kappa) heavy: QVQLQESGPGLVKPSETLSLTCAVSGHSISHDHAWSWVRQPPGEGLEWIGFISYSGITNYNPSLQGRVTISRDNSKNTLYLQMNSLRAEDTAVYYCARSLARTTAMDYWGEGTLVTVSSASTKGPSVFPLAPSSKSTSGGTAALGCLVKDYFPEPVTVSWNSGALTSGVHTFPAVLQSSGLYSLSSVVTVPSSSLGTQTYICNVNHKPSNTKVDKKVEPKSCDKTHTCPPCPAPDLLGGDSVFLFPPKPKDTLMISRTPEVTCVVVDVSDEDGEVKFNWYVDGVEVHNAKTKPREEQDNSTYRVVSVLTVLHQDWLNGKEYKCKVSNKALPKPIEKTISKAKGQPREPQVYTLPPSRDELTKNQVSLTCLVKGFYPSDIAVEWESNGQPENNYKTTPPVLDSDGSFFLYSKLTVDKSRWQQGNVFSCSVMHEALHNHYTQESLSLSP light: not shown |
| 110 relative (IL6R-BF648/IL6R-L = 100) | 165 relative (IL6R-BF648/IL6R-L = 100) | IL6R-BP204/IL6R-L (antibody, human IgG1, kappa) heavy: QVQLQESGPGLVKPSETLSLTCAVSGHSISHDHAWSWVRQPPGEGLEWIGFISYSGITNYNPSLQGRVTISRDNSKNTLYLQMNSLRAEDTAVYYCARSLARTTAMDYWGEGTLVTVSSASTKGPSVFPLAPSSKSTSGGTAALGCLVKDYFPEPVTVSWNSGALTSGVHTFPAVLQSSGLYSLSSVVTVPSSSLGTQTYICNVNHKPSNTKVDKKVEPKSCDKTHTCPPCPAPDLLGGDSVFLFPPKPKDTLMISRTPEVTCVVVDVSHEDGEVKFNWYVDGVEVHNAKTKPREEQYNSTYRVVSVLTVLHQDWLNGKEYKCKVSNAALPRPIEKTISKAKGQPREPQVYTLPPSRDELTKNQVSLTCLVKGFYPSDIAVEWESNGQPENNYKTTPPVLDSDGSFFLYSKLTVDKSRWQQGNVFSCSVMHEALHNHYTQESLSLSP light: not shown |
